Experiments:
[1] = molecular target: T1, FAP (Homo sapiens, UniProt Q12884); test: LC-MS/MS cleavage map of FAP digest of 100 kDa recombinant human gelatin; assay type: biochemical; conditions: 100 kDa gelatin digest; for Percentage: share of all occurrences
T1 construct: the extracellular domain of FAP was cloned with a His-6 tag; made in house
T1 sequence (Q12884 26-760 limits assumed): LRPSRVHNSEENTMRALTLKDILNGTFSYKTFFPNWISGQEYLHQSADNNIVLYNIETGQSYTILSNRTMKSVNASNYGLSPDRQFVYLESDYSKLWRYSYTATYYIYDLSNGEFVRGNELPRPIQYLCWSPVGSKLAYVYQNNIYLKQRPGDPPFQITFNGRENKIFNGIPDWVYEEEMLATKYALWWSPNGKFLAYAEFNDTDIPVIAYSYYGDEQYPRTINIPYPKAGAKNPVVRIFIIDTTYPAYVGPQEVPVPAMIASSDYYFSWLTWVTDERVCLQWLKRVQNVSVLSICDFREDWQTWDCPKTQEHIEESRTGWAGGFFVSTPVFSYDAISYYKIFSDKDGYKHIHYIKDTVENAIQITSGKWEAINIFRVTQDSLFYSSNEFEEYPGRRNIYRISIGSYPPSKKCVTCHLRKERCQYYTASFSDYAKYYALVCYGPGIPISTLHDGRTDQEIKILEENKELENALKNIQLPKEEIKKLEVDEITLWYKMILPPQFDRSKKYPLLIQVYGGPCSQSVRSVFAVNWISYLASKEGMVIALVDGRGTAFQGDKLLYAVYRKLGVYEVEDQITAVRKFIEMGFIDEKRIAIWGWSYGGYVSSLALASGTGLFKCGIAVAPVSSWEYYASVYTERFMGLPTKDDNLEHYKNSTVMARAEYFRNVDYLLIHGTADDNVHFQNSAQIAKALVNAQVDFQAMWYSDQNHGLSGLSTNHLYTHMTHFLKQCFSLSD
Protocol: (§1) Human collagen I (Becton Dickinson, Franklin Lakes, N.J.) and recombinant human gelatins of 100 KDa and 8.5 KDa (Fibrogen, San Francisco, Calif.) were dissolved in reaction buffer to a final concentration of 100-300 μg/ml. 0.5-1 μg of FAP was added per 100 μgs of protein substrate. Digestion was done for 4-6 hrs at 37° C. As a positive control trypsin digestion was used. As a negative control, protein solutions were incubated either with BSA or buffer only. Peptide fragments of a size <30 KDa were purified using 30 KDa Microcon spin filter (Millipore, Billerica, Mass.).
(§2) Peptides obtained from FAP/gelatin digests were dried using a speedvac (Eppendorf), resuspended in LC/MS loading buffer (3% ACN, 0.1% formic acid), and analyzed using nano-flow LC/MS/MS on an Agilent 1100 series nano-LC system (Agilent) coupled to an LCQ Duo ion trap mass spectrometer (ThermoFinnigan). Peptides were pre-concentrated on a 5 mm Zorbax C18 trap column (Agilent) and then eluted onto a 100×0.075 mm custom-packed Biobasic C18 (ThermoElectron) reversed phase capillary column connected to a laser-pulled electrospray ionization emitter tip (New Objective) at a flowrate of 300 nl/min Peptides were eluted the nanospray source of the LCQ (Proxeon, Denmark) using the following gradient: 0% B at 0 min, 5% B at 8 min, 45% B at 50 min, 90% B at 55 min, 90% B at 60 min (B=0.1% formic acid in acetonitrile) at a spray voltage of 2.5 kV. The LCQ was operated in data-dependent mode using the Xcalibur software (ThermoFinnigan) in which every MS scan (400-1800 m/z) was followed by MS/MS scans (400-1800 m/z) on the 3 most intense ions using an isolation window of ±1.5 Da. Ions selected for MS/MS fragmentation were dynamically excluded for 30 s.
(§3) MS/MS data were searched against a collagen FASTA database using the SEQUEST search algorithm built into the Bioworks Browser (ThermoFinnigan) allowing for the variable modification of Methionine oxidation. Peptides were initially filtered in a charge dependent manner using an XCorr filter of 1.5, 2, and 2.5 for singly, doubly, and triply charged peptides. All MS/MS spectra used to identify peptides were manually inspected for validation of y and b-ion series. To quantify the relative abundance of each identified peptide we compared the ion current for each of the observed peptide parent ions from the MS spectra. The contribution of each parent ion to the total ion current was extracted and integrated over the peptide elution peak.
To resolve each particular mass fragment a Liquid Chromatograpy (LC) and Tandem mass spectroscopy (MS-MS) [LC-MS-MS] method was developed. Using this method, peptide fragments from FAP digests of the 8.5 kDa and 100 kDa recombinant gelatin were time-resolved by nano reverse phase LC (FIGS. 12 and 14) and then sequenced using an ion trap mass spectrometer operating in MS/MS mode. Initial methodological issues were worked out using the 8.5 kDa fragment before analyzing the entire 100 kDa protein. MS/MS spectra were searched against the 8.5 kDa and 100 kDa gelatin sequences using the SEQUEST algorithm with no cleavage specificity. Most of the identified cleavage sites in both sized gelatins occurred after Proline. However, FAP cleavage sites in these gelatins were not restricted to Proline alone. FAP was also found to cleave after Ala (e.g. A/A, A/G, A/P, A/R), Asp (e.g. D/G, D/T), Gly (e.g. G/A, G/E, G/L, G/Q, G/P, G/V), Glu (i.e., E/P), Lys (i.e., K/A, K/G), Ser (e.g. S/P) and Val (e.g. V/G).
To identify the most preferentially cleaved sites, we relatively quantified the abundance of each of the identified peptides by integrating the ion current generated by each peptide throughout the chromatogram. After identification of a peptide from a MS/MS spectrum, we extracted the ion current for the parent mass of the ion from the total MS ion chromatogram using a 1.5 Da tolerance window, and then integrated under the peak (FIGS. 12 and 14). […]

[2] = molecular target: T1, FAP; test: LC-MS/MS cleavage map of FAP digest of 8.5 kDa recombinant human gelatin; assay type: biochemical; conditions: 8.5 kDa gelatin digest; for Normalized Ion Current: peak with lowest ion current assigned 1.0
Protocol: as §1, §2, §3
As Collagen I and Gelatin are currently the only known protein substrates for FAP, we needed to develop an alternative method to identify FAP-selective cleavage sites within these proteins. […] The masses of fragments <3 KDa were purified for MALDI spectra and again analyzed by FindPept tool. […]

[3] = molecular target: T1, FAP; test: FAP gelatinase and collagenase assay with quenched (DQ) proteins; assay type: biochemical
Protocol: Quenched gelatin and collagen conjugates were used to detect and confirm FAP's gelatinase and collagenase activity. DQ™ Gelatin from pig skin, DQ™ collagen, type IV from human placenta, DQ™ collagen, type I from bovine skin, all as fluorescent conjugates (Invitrogen, Rockville, Md.) were digested with FAP and digestion monitored on a fluorescence plate reader. Protein substrates were dissolved in reaction buffer (100 mM NaCl, 100 mM Tris, pH 7.8) to a final concentration of 100 μgs/ml. Trypsin digestion was used as a positive control. As a negative control the His tagged extra cellular domain of Prostate Specific Membrane Antigen (PSMA), which was similarly purified from S2 cells under the same conditions as FAP. Fluorescent quenched DQ™ Bovine Serum Albumin was used as a negative control for FAP protease activity.
Quenched forms of Gelatin and Collagen were used to confirm the gelatinase and collagenase activity of recombinant FAP. Quenching is achieved by labeling these proteins with the fluorophore FITC such that fluorescence signal from the intact protein is minimal due to is self-quenching by the fluorphore. Protein digestion releases FITC-labeled fragments that result in measurable increase in overall fluorescence signal from the reaction mixture. […] On a relative basis gelatin was digested ˜10-fold better by FAP than collagen I. MALDI analysis of digested fragments was performed to confirm hydrolysis.

[4] = molecular target: T2, FAP (Homo sapiens, UniProt Q12884); conditions: previously demonstrated; cited from earlier work
T2 sequence (Q12884 1-760): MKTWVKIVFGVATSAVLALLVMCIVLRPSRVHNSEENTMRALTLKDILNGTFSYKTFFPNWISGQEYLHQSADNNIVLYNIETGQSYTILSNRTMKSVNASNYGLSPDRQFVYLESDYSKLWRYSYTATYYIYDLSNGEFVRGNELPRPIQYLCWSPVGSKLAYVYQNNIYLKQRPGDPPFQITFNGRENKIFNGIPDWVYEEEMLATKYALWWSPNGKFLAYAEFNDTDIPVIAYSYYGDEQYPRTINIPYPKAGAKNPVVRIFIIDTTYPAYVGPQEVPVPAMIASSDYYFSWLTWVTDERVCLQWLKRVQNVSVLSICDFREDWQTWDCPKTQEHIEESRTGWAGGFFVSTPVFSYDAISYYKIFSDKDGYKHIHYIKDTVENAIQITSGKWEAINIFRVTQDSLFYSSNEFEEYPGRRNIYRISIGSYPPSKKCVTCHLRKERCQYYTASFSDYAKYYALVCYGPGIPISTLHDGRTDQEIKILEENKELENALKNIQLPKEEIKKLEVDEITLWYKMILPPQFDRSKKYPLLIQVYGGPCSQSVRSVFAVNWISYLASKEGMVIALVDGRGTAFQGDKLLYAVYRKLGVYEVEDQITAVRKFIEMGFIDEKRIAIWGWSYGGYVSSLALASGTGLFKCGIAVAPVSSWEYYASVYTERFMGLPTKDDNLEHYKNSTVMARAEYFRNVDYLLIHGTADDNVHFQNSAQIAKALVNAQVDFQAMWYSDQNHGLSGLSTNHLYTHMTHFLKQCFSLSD

Occurences [1] | Percentage [1] | Substance | also measured
11 | 5.24 | P.AGRPGEVGPPGPPGP.A: FAP cleavage fragment, 100 kDa recombinant human gelatin | 
1 | 0.48 | P.KGAAGEPGKAGERGVPGPPGAVGPAGKDGEAGAQGPPGP.A: FAP cleavage fragment, 100 kDa recombinant human gelatin | 
2 | 0.95 | G.PPGADGQPGAKGEPGDAGAKGDAGPPGP.A: FAP cleavage fragment, 100 kDa recombinant human gelatin | 
7 | 3.33 | G.PPGAPGAPGAPGPVGPAGKSGDRGETGP.A: FAP cleavage fragment, 100 kDa recombinant human gelatin | 
2 | 0.95 | P.PGLAGPPGESGREGAPGAEGSPGRD.G: FAP cleavage fragment, 100 kDa recombinant human gelatin | 
6 | 2.86 | P.IGPPGPAGAPGDKGESGP.S: FAP cleavage fragment, 100 kDa recombinant human gelatin | 
1 | 0.48 | A.PGPVGPAGKSGDRGETGP.A: FAP cleavage fragment, 100 kDa recombinant human gelatin | 
6 | 2.86 | P.AGPPGAPGAPGAPGPVGPAGKSGDRGETGP.A: FAP cleavage fragment, 100 kDa recombinant human gelatin | 
2 | 0.95 | V.GPPGPPGPP.G: FAP cleavage fragment, 100 kDa recombinant human gelatin | 

Further lines, the substance ahead of its results:

Substance | Occurences [1] | Percentage [1] | also measured
P.AGQDGRPGPPGPPGARGQAG.V: FAP cleavage fragment of 100 kDa and 8.5 kDa recombinant human gelatin, MH+ 1799.89 | 1 | 0.48 | Normalized Ion Current [2]: 1.0
Gelatin |  |  | digestion by FAP relative to collagen I [3]: ~10 fold; hydrolysis of FITC-quenched protein by FAP ([3]; 100 μgs/ml protein substrate): readily hydrolyzed
P.AGKDGEAGAQGPPGP.A: FAP cleavage fragment of 100 kDa and 8.5 kDa recombinant human gelatin, MH+ 1308.62 (PAGKDGEAGAQGPPGPA) | 2 | 0.95 | relative abundance of fragment by integrated ion current [2]: most abundantly identified fragment; Normalized Ion Current [2]: 234.8
P.KGAAGEPGKAGERGVPGPPGAVGP.A: FAP cleavage fragment of 100 kDa and 8.5 kDa recombinant human gelatin, MH+ 2113.12 | 5 | 2.38 | Normalized Ion Current [2]: 46.8
fibronectin |  |  | cleavage by FAP [4]: not
G.PTGARGAPGDRGEPGPPGP.A: FAP cleavage fragment, 100 kDa recombinant human gelatin | 6 | 2.86 | 
P.QGFQGPPGEPGEPGASGP.M: FAP cleavage fragment, 100 kDa recombinant human gelatin | 2 | 0.95 | 
P.SGNAGPPGPPGP.A: FAP cleavage fragment, 100 kDa recombinant human gelatin | 14 | 6.67 | 
